# B1: BcelFp (Fervidobacterium pennivorans DSM 9078) (protein)
# chain: MDQSVAESDSNSALEYNKIIGKGVNIGNALEAPFEGAWGVRIEDEYFEIIKKRGFDSVRIPIRWSAHISEKPPYDIDRNFLERVKHVVDRALENNLTVIINTHHFEELYQEPDKYGNVLVEIWRQIAKFFKDYPENLFFEIYNEPAQNLTAEKWNELYPKVLKVIRESNPTRIVIIDAPNWAHYSAVRSLKLVNDKRIIVSFHYYEPFNFTHQGAEWVNPTPPVGVKWNGEEWEINQIRSHFKYVSDWAKQNKVPIFLGEFGAYSKADMDSRVKWTESVRKMAEEFGFSYAYWEFCAGFGIYDRWSQNWIEPLATAVVGESKE
# notes: 323 residues (969 bp), N-terminal His-tag, pET28a BamHI/XhoI, E. coli BL21-CodonPlus(DE3)-RIL, Ni-NTA; calculated 37,892 Da, about 38 kDa by SDS-PAGE; forward primer starts … (MDQSVA)
# How the values were obtained:
# Assay in all cases: HPLC of ginsenoside conversion, Michaelis-Menten
# Type in all cases: biochemical, Fervidobacterium pennivorans
# Conditions in all cases: 50 mM phosphate-citrate, pH 6.0, 95 °C, substrate range stated as 0.5 to 10.0 mM (printed unit µM may be mM)
# [1] = substrate: CC(C)=CCC[C@](C)(O[C@@H]1O[C@H](CO)[C@@H](O)[C@H](O)[C@H]1O)[C@H]1CC[C@]2(C)[C@@H]1[C@H](O)C[C@@H]1[C@@]3(C)CC[C@H](O[C@@H]4O[C@H](CO)[C@@H](O)[C@H](O)[C@H]4O[C@@H]4O[C@H](CO)[C@@H](O)[C@H](O)[C@H]4O)C(C)(C)[C@@H]3CC[C@]12C
# From the text: (§1) HPLC of ginsenoside conversion, Michaelis-Menten on BcelFp
# [2] = substrate: CC(C)=CCC[C@](C)(O[C@@H]1O[C@H](CO[C@@H]2O[C@H](CO)[C@@H](O)[C@H](O)[C@H]2O)[C@@H](O)[C@H](O)[C@H]1O)[C@H]1CC[C@]2(C)[C@@H]1[C@H](O)C[C@@H]1[C@@]3(C)CC[C@H](O[C@@H]4O[C@H](CO)[C@@H](O)[C@H](O)[C@H]4O[C@@H]4O[C@H](CO)[C@@H](O)[C@H](O)[C@H]4O)C(C)(C)[C@@H]3CC[C@]12C
# From the text: as §1
# [3] = substrate: [H][C@@]1(O[C@@H]2[C@@H](O)[C@H](O)[C@@H](CO)O[C@@]2([H])O[C@H]2CC[C@]3(C)[C@@]4([H])C[C@@H](O)[C@]5([H])[C@@]([H])([C@](C)(CCC=C(C)C)O[C@@H]6O[C@H](CO[C@@H]7OC[C@H](O)[C@H](O)[C@H]7O)[C@@H](O)[C@H](O)[C@H]6O)CC[C@@]5(C)[C@]4(C)CC[C@@]3([H])C2(C)C)O[C@H](CO)[C@@H](O)[C@H](O)[C@H]1O
# From the text: as §1
protein,measurement,setting,value
B1,Vmax,[1],156 µM/min
same,kcat/Km,[1],27900 M⁻¹ s⁻¹
same,Km,[1]; unit of the source corrected,670 µM
same,Vmax,[2],382 µM/min
same,kcat/Km,[2],12500 M⁻¹ s⁻¹
same,Km,[2]; unit of the source corrected,3660 µM
same,Vmax,[3],315 µM/min
same,kcat/Km,[3],9390 M⁻¹ s⁻¹
same,Km,[3]; unit of the source corrected,4020 µM

# Reference: publication PMC9617004, “Cloning and characterization of thermophilic endoglucanase and its application in the transformation of ginsenosides” (AMB Express, 2022)
